50 sequences from the supplement of paper PMC9112550, “Optimization of the antimicrobial peptide Bac7 by deep mutational scanning” (BMC Biology, 2022) can be followed below.

This data set concerns Escherichia coli TOP10. Put plainly: shrunken log2 fold change of peptide-encoding DNA abundance (4.5 h post-induction vs induction); higher = less antimicrobial activity (less host growth inhibition). The conditions noted are these: time post-induction: 4.5 h; library: site-saturation at positions 5, 18, 19, 20.
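Further: peptides expressed intracellularly from a pBAD plasmid library in pooled LB shake-flask culture, induced with 0.3% L-arabinose, DNA abundance read by NGS, three biological replicates, DESeq2 with apeglm shrinkage.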

As to RRIRCRPPRLPRPRPRPTQCPRP, the “shrunken log2 fold change” value was 0.0468. The same measure for RRIRGRPPRLPRPRPRPETDPRP: 1.34. For RRIRTRPPRLPRPRPRPLYFPRP the value was -0.418; for RRIRTRPPRLPRPRPRPTWTPRP, -0.136. The same measure for RRIRDRPPRLPRPRPRPYNLPRP: -0.0574.

RRIRYRPPRLPRPRPRPKTHPRP: the “shrunken log2 fold change” value was -0.661. As to RRIRQRPPRLPRPRPRPEMQPRP, the “shrunken log2 fold change” value worked out at 0.0355. The same measure for RRIRQRPPRLPRPRPRPMDKPRP: 0.0321; for RRIRVRPPRLPRPRPRPPWFPRP: 0.0493; for RRIRGRPPRLPRPRPRPDIKPRP: 0.547.

Turning to RRIRYRPPRLPRPRPRPMCHPRP, the “shrunken log2 fold change” value was -0.0146. For RRIRKRPPRLPRPRPRPRYVPRP the value was 0.0611; for RRIRERPPRLPRPRPRPMHVPRP, 0.05; for RRIRKRPPRLPRPRPRPWGEPRP, 0.539. For RRIRIRPPRLPRPRPRPASGPRP the value was 0.0837. For RRIRYRPPRLPRPRPRPLMAPRP the value was -0.681; for RRIRMRPPRLPRPRPRPAWAPRP, 0.663.

For the sequence RRIRDRPPRLPRPRPRPHEEPRP, the “shrunken log2 fold change” value amounted to 0.175. On to RRIRTRPPRLPRPRPRPSQRPRP, for which the “shrunken log2 fold change” value amounted to 0.0168. For the sequence RRIRPRPPRLPRPRPRPLDDPRP, the “shrunken log2 fold change” value is 0.0437. For RRIRRRPPRLPRPRPRPVQPPRP the value was 0.669. As to RRIRARPPRLPRPRPRPRIKPRP, the “shrunken log2 fold change” value was -0.00918. The same measure for RRIRCRPPRLPRPRPRPLHHPRP: -0.469; for RRIRHRPPRLPRPRPRPHMLPRP: -0.0874; for RRIRYRPPRLPRPRPRPFMHPRP: -0.661. RRIRHRPPRLPRPRPRPMYYPRP: the “shrunken log2 fold change” value is -0.681. For RRIRERPPRLPRPRPRPTWPPRP the value was 0.219; for RRIRVRPPRLPRPRPRPLCHPRP, -0.364. As for RRIRCRPPRLPRPRPRPYLTPRP, the “shrunken log2 fold change” value is -0.459. RRIRIRPPRLPRPRPRPTHVPRP: the “shrunken log2 fold change” value is -0.0979.

On to RRIRFRPPRLPRPRPRPHQAPRP, for which the “shrunken log2 fold change” value is -0.0233. For RRIRIRPPRLPRPRPRPVTAPRP the value was -0.299.

With RRIRARPPRLPRPRPRPCGMPRP, the “shrunken log2 fold change” value is 0.0551. The same measure for RRIRRRPPRLPRPRPRPYQLPRP: -0.234; for RRIRARPPRLPRPRPRPTWDPRP: 0.604; for RRIRARPPRLPRPRPRPNTQPRP: -0.0663. The same measure for RRIRNRPPRLPRPRPRPERCPRP: 0.0334; for RRIRGRPPRLPRPRPRPLWSPRP: 0.117.

RRIRVRPPRLPRPRPRPENWPRP: the “shrunken log2 fold change” value worked out at 0.131.

In the case of RRIRGRPPRLPRPRPRPEHMPRP, the “shrunken log2 fold change” value amounted to 0.396. The same measure for RRIRNRPPRLPRPRPRPYKVPRP: -0.324; for RRIRYRPPRLPRPRPRPCPNPRP: 0.626. For RRIRARPPRLPRPRPRPNANPRP the value was 0.49; for RRIRNRPPRLPRPRPRPQYNPRP, -0.674; for RRIRARPPRLPRPRPRPPEDPRP, 0.308. Regarding RRIRCRPPRLPRPRPRPSNTPRP, the “shrunken log2 fold change” value was -0.417. Take RRIRDRPPRLPRPRPRPNWTPRP: the “shrunken log2 fold change” value came to 0.0279. For RRIRARPPRLPRPRPRPDNFPRP the value was -0.294; for RRIRHRPPRLPRPRPRPQSEPRP, -0.314. The same measure for RRIRARPPRLPRPRPRPRLKPRP: 0.547.
